Common to all, as to assay: Der pI substrate assay with FRET peptides (fluorescence, Km, kcat/Km)
What all share (format): biochemical, house dust mite
What all share (conditions): other: purified Der pI; peptides SEQ ID Nos. 1-76; pH 8.25

Substrate in series [1]: CC(C)CC[C@H](NC(=O)[C@H](C)NC(=O)[C@H](Cc1ccc(-c2ccccc2)cc1)NC(=O)c1ccccc1N)C(=O)N[C@H](C(=O)N[C@@H](Cc1ccc(O)c([N+](=O)[O-])c1)C(=O)N[C@@H](CC(=O)O)C(N)=O)[C@@H](C)O
The procedure: (§1) Using the general techniques described above, the following compounds were prepared and assayed as potential substrates against Der pI purified as described above.
(§2) Each mixture of 20 compounds in the libraries of the apparatus described herein was screened at a concentration of 1.0 μM per compound in an assay against the cysteinyl protease Der pI.
(§3) Plate assays were carried out in 96 well plate format, using 0.1 ug of Der pI per 100 μL assay volume in each well and using 20 μM of the substrate. All assays were performed in Assay Buffer (AB; 50 mM potassium phosphate, pH 8.25 containing 1 mM ethylenediaminetetraacetic acid (EDTA) and 1 mM dithiothreitol (DTT). The Der pI enzyme is pre-activated by addition of DTT and this in incubated at room temperature for 5 min. prior to initiation of the assay. As an example for the screening methodology, each well contains a 5 μL of a 20 μM solution of the test compound in DMSO, 10 μL of a 200 μM aqueous solution of the substrate, 2, and 85 μL of Der pI in AB is added to initiate the reaction. Enzyme activity is monitored by fluorescence using 320 nm for excitation and 420 nm for the emission wavelengths using a Labsystems Fluroskan Ascent machine. Kinetic measurements were carried out using a Hitachi F-4500 Fluorescence Spectrophotometer.

Substrate in series [2]: CC(C)[C@H](NC(=O)c1ccccc1N)C(=O)N[C@@H](C)C(=O)N[C@@H](Cc1cccnc1)C(=O)N[C@@H](CO)C(=O)N[C@@H](Cc1ccc(O)c([N+](=O)[O-])c1)C(=O)N[C@@H](CC(=O)O)C(N)=O
As for the experimental part:
as §1, §2, §3

Substrate in series [3]: CC(C)[C@H](NC(=O)c1ccccc1N)C(=O)N[C@@H](C)C(=O)N[C@H](C(=O)N[C@@H](CO)C(=O)N[C@@H](Cc1ccc(O)c([N+](=O)[O-])c1)C(=O)N[C@@H](CC(=O)O)C(N)=O)[C@@H](C)O
The procedure:
as §1, §2, §3

Substrate in series [4]: CC(C)CC[C@H](NC(=O)[C@H](CCCCN)NC(=O)[C@@H](NC(=O)c1ccccc1N)C(C)C)C(=O)N[C@@H](CO)C(=O)N[C@@H](Cc1ccc(O)c([N+](=O)[O-])c1)C(=O)N[C@@H](CC(=O)O)C(N)=O
As for the experimental part: as §1, §2, §3

B1: Der pI (Dermatophagoides pteronyssinus) (protein)
chain: TNACSINGNAPAEIDLRQMRTVTPIRMQGGCGSCWAFSGVAATESAYLAYRNQSLDLAEQELVDCASQHGCHGDTIPRGIEYIQHNGVVQESYYRYVAREQSCRRPNAQRFGISNYCQIYPPNVNKIREALAQTHSAIAVIIGIKDLDAFRHYDGRTIIQRDNGYQPNYHAVNIVGYSNAQGVDYWIVRNSWDTNWGDNGYGYFAANIDLMMIEEYPYVVIL
notes: tissue SmithKline-Beecham, U.K (crude mite extract); host or cells: crude house dust mite extract
As to B1, the Michaelis-Menten constant (Km) stood at 2.5 µM in series [1], 10 µM in series [2], 6 µM in series [3] and 35 µM in series [4].

Source of the values: US6528275B1, “Substrates and inhibitors of proteolytic enzymes” (Peptide Therapeutics Limited, priority 1996, dated 2003).
